# Assay: yeast display, Sf9 membrane polyspecificity reagent, FACS + sequencing; frameworks hold sequencing errors
# Summary of the method: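 Synthetic nanobody libraries on Saccharomyces cerevisiae BJ5465 were galactose-induced for 36–48 hours, stained 1 hour at 4 °C with 10% biotinylated, detergent-solubilized Sf9 membrane reagent and enriched on streptavidin microbeads. FACS then separated cells into low and high (top ~1%) gates by anti-HA (expression) and streptavidin (reagent binding) fluorescence. Genes were colony-PCR amplified, MiSeq 2 × 250 sequenced and CDR-length filtered. A clone's polyreactivity label is that of its gate of origin.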
row,Sequence,polyreactivity (PSR sort gate)
1,QVQLVESGGGLVQAGVSLRLSCAASGSTFIRNAMGWYRKAPGKERELVAAISSGGASTHYADSVKGRFTISRDNAKNTVYLQMKSLKPEDTAVYYCSATHRWYYWPGIPAYDYWGQGTQVTVSS,low polyreactivity
2,QVQLVESGGGLVQAGVSLRLSCAASGSTFKQYAMGWYRQAPGKERELVAAIDRGGSTYYADSVKGRFTISRDNANNTVYLQMNSLKPEYTAVYYCAARFVQYRYAFDYWGQGTQVTVSS,low polyreactivity
3,QVQLVESGGGLVQAGVSLRLSCDASGSTFHYYVMGSSRQAPGKEREFVAAISRSGGNPYYADSVKGRFTISRDNAKNTVYLQMNSLKPDDTAVYYCAAALSAYVKWDYYYCGQGTQVTVSS,low polyreactivity
4,QVQLVESGGGLVQAGVSLRLSYADSGPIFYKYVMGWYRQAPGKEREMDAAINRSGGTTYYADSVKGRFTISRDKAMNTVYLQMNRLKREDTAVYYCNATLPDYWRYYYYQCGDDYWGQGTQVTVSS,low polyreactivity
5,QVQLVESGGGLVQALGSLRLSCVASGSTYDAYDMGWYREAPGKERELVAAITSGGSTYYADSVKGRFTISRDNAKNTVYLQMNSLKPEDTAVYYCAASNQWSSTYLTYGFYYWGQGTQVTVSS,low polyreactivity
6,QVQLVESGGGLVQARGSLRLSCAASGFIFLYNAMGWYRQAPGKERELLAAITSSGGTTYYADSVKGRFTISRDNAKNTVYLQMNSLKPEDTAVYYCAARYTGRNGGSNTPEYDYWVQGTQVTVSS,low polyreactivity
7,QVQLVESGGGLVQARGSLRLSCAASGFIFRDNAMGWYRQAPGKERELVAAISKSGGRTYYADSVKGRFTISRDNAKNTVYLQMNSLKPEDTAVYYCAKASRYWSLYYWGQGTQVTVSS,high polyreactivity
8,QVQLVESGGGLVQARGSLRLSCAASGFNFRSYAMASYRQAPGKERELVAAINSRAGNTYYADSVKGRFTISRDNSKNTVYLQMNSLKPEDTAVYYCNAVRHTYGYYSCGQGTQVTVSS,high polyreactivity
9,QVQLVESGGGLVQARGSLRLSCAASGFTFPQYAMAWYRQAPGKERELVAVISWSGSSTYYADSVKGRFTISRDNAKNTVYLQMNSLKPEDTAVDYCNTRKLYQVDYDYWGQGTQVTVSS,high polyreactivity
10,QVQLVESGGGLVQARGSLRLSCAASGITFYFNAMGWYRQAPGKERELVAVITSGGSTNYADSVKGRFTISRDNAKNTVYLQMISLKPEDTAVYYCATDKSYSSWSAQYDYWRQGTQVTVSS,low polyreactivity
11,QVQLVESGGGLVQARGSLRLSCAASGLTFTVDAMGWYRQAPGKEREFVAAISYSAGRTYYADSVKGRFTISRDNAKNTVYLQMNSLKPADTAVYYCAAATYYSIYDYWGQGTQVTVSS,high polyreactivity
12,QVQLVESGGGLVQARGSLRLSCAASGNTFVRNVMGWYRKAPGKERELFAAITWRSVRTDYADSVKGRFTISLDNAKNTVNLQMNSLKPEDTAVYNCAAPSASRHGEYDYWGQGTQVTVSS,low polyreactivity
13,QVQLVESGGGLVQARGSLRLSCAASGRIFKRYTMGWYTQAPGKKRELVATISSGDSTTYADSVKGRFTISRDNAKNTVYLQMNSLKQEDTAVYYCAAVWPGGSRRGDVVALNYWGQGTQVTVSS,high polyreactivity
14,QVQLVESGGGLVQARGSLRLSCAASGRILYSYAMGWYRQAPGKERELVASISLSGGRTYADSVKGRFTISRDNAKNTVYLQMNSLKPEDTAVYYCNDRIRTSRYLWPFDYWGQGTQVTVSS,high polyreactivity
15,QVQLVESGGGLVQARGSLRLSCAASGRNFPSNAMGWYRQAPGKERELVPVITRGSRTKYADCVKGRFTISRDKAMNTVYLQMNSLKPEDSAVYYCAALGGLLYTQGHSEAYWGQGTQGTVSS,low polyreactivity
16,QVQLVESGGGLVQARGSLRLSCAASGRTFKRYAMGWYRQAPGKERELVAAIAWSGTSTYYADSVKGRLTISRDNAKNTVYLQMNSLIPEDTAVYYCNTPHRSSSVRSYGYWGQGTQVSVSS,high polyreactivity
17,QVQLVESGGGLVQARGSLRLSCAASGSIFAYNAMGWYRQAPGKERELVARISNRSGRTYYADSVKGRFTISRDNAKNTVYLLMNSLKPEDTAVYYCGVVAGLGTYRRYGYCGQGTQVTVSS,high polyreactivity
18,QVQLVESGGGLVQARGSLRLSCAASGSIFINNTRGWYRQAPGIEREWVAAISITGGSTYYADSVKGRFTISRDNAKNSVYLQMNSLKPEDTAVDYCAADPLQLYDYNYWGQGTQVTVSS,low polyreactivity
19,QVQLVESGGGLVQARGSLRLSCAASGSIFYGNTMGWYRQAPGKESEFVAAISYGGGGTYYADSVKGRFTISRDNAKNTVYLQMNILKPEDTAVYYCATDDPLYQINEQGMDYWGLGTQVTVSS,low polyreactivity
20,QVQLVESGGGLVQARGSLRLSCAASGSTFHQYVMGWYRQAPGKESELVAAINSSGSSTYYADSVKGRFTISRDNAKNTVDLQMNSLKPEDTAVYYCARDGLRNPGGYGFWGQGTQVTVSS,low polyreactivity
21,QVQLVESGGGLVQARGSLRLSCAASGSTFPYVMGWYRQAPWKERELVAAISQRTGSTYYADSVKGRFTISRDNAKNTVYLQMNSLNPEDTAVYYCAKPGYLRPSRYDYWGQGTQVTVSS,high polyreactivity
22,QVQLVESGGGLVQARGSLRLSCAASGSTFRFNAMGRYRQAPGKEREFVAAIRFTGGSTYYADSVKGRFTISRDYAKNTVYLQMNSLKPEDTAVYYCNNADEYSNVEYDYWGQGTQVTVSS,low polyreactivity

row,Sequence,polyreactivity (PSR sort gate)
1,QVQLVESGGGLVQARGSLRLSCAASGSTFYYNTMGWYRQAPGKERELVAAITSSGGRTYYADSVKGRFTISRDNAKNTVYLQMNSLKPEDTAVYYCAAKRVGSTANRRVTKYDWGQGTQVTVSS,high polyreactivity
2,QVQLVESGGGLVQARGSLRLSCAASGTIFASNAMGWLRKAPGKVRELVAAINSGGNTYADSVKGRFTITRDNAKNTVYVHMNSLKPEDTAVYYCAVVWNWCSGLSPGYPEFDYWGQGTQVTVSA,low polyreactivity
3,QVQLVESGGGLVQARGSLRLSCAASVGTFGSNNMGCYRQAPGKDRELVAAITSGVSTNYADSVKGRFTITRYIAKNTVYLQMNSLKPEDTAVNYSAAGTQAHAYVVRPIEMDYWGQGTQVTVSS,low polyreactivity
4,QVQLVESGGGLVQARGSLRLSCAASVRTICNNAMGWYREAPGKERELVAANTSTASRTYYADSEKGRFTISRDNAKNTVYLQMNSLKPEDTAVYYCNRVSHLDYYWGQGTQVTVSS,high polyreactivity
5,QVQLVESGGGLVQARGSLRLSCASSGITLYFNTMGCYRQPPGKESELVASISGGSSTYYADSVKGRFTISRDNAKNTVYLQMNSLKPEDTAVYYCNAQGSLFRGWFDYDYWGLGTQVTVSS,low polyreactivity
6,QVQLVESGGGLVQARGSLRLSCASSGSTFGGYAMGWYRQAPGKERELVPAITRSGGSTYYADSVKGRFTISRDNGKNTVYLQMNSLKPEDTAVYYCAARVPRGDRPGYHYAYYYWGQGTQVTVSS,high polyreactivity
7,QVQLVESGGGLVQASGSLRLSCAASGFTFSQYDMGWNRQDHGKERELVAAISWNGGSTYYAESVKGRFTISRDNAKNTVYLQMNSLKPDDTAVYYCNRRWPFVRFYYWGQGTQVTVSS,high polyreactivity
8,QVQLVESGGGLVQAVCSLRLSCAASGRTFHGNAMGWYRQAPGKERELVAAISYSGGRTYYADSVKGRFTISRDNAKNTVYLQMNSLKPEDTAVYYCAAWGSSYSFDYWGQGTQVTVSS,high polyreactivity
9,QVQLVESGGGLVQAVGGLRLSCAASGSTFKRNTMGSYRQAPGKEMELVAAISRSGGSTYYADSVKGRFTISRDNAKNTVYLQMNSLKPEDTAVYYCNAYVSSYVGSRSYGLSPYDYWGQGTQVTVSS,high polyreactivity
10,QVQLVESGGGLVQAVGRLRLSCAASGSNFQYYAMGWYRQAPGKERELVAAISSSGTGTSYADSVKGRFTISRDNAKNTVYLQMNSLKPEDTGVYYCAADYRDYPDSAYYYWGQGTQVTVSS,low polyreactivity
11,QVQLVESGGGLVQAVGSLRLSCAASGLIFWRNAMGWYRQAPGKERELVAAITYSGSRTYYADSVKGRFTISRDNAKNTVYLQMNSLKPEDTAVYYCNADYYWYPYEDDDWGQGTQVTVSS,low polyreactivity
12,QVQLVESGGGLVQAVGSLRLSCAASGLTFYSNAMGWYRQAPGTERELVATISQDGGRTYADSVKGLFTISRDNAKNTVYFQMNSLKPEDTAVYYCAADYSGNYDFGYWGQGNQVTVSS,low polyreactivity
13,QVQLVESGGGLVQAVGSLRLSCAASGRTFGNYAMGWYRQAPGKERELVAAISRSGASTYYADSVKGRFTISRDNAKNSVYLQMNSLKPEDTAVYYCAARVLKPFKYGYWGQGTQVTVSS,high polyreactivity
14,QVQLVESGGGLVQAVGSLRLSCAASGRTFNSYTMGWYRQAPGKERELVAAISSGGSTTYADSVKGRFTISRDNAKNTVYLQMNSLKPEDTAVYYCAAGLVYRGYRRDYWGQGTQVTVSS,low polyreactivity
15,QVQLVESGGGLVQAVGSLRLSCAASGRTFYRYAMGWYRQAPGKERELVASITRRGGNTYYADSVKGRFTISRDNAKNTVYLQMNSLKPEDTAVYYCAAQSLHPGNWGQGTQVTVSS,high polyreactivity
16,QVQLVESGGGLVQAVGSLRLSCAASGSTLSANAMGWYRQAPGKEWELVAAISWNGGCTYYADSVKGRFTISRDNAKNTVYLQMNSLKPEDTAVYYCAAEYIVTYEYWYFGYDYWGQGTQVTVSS,low polyreactivity
17,QVQLVESGGGLVQAVGSLRLSCAASGSTLYRYALGWYRQAPGKARELDAAISSSGGSTYYADSVKGRFTISRDNAKNTVYLQMNSLKPEDTEVYYCARVARASGVRWYYYWGQGTQVTVSS,high polyreactivity
18,QVQLVESGGGLVQAVGSLRLSCAASVFIFPYYDMGWYRQAPGKEREFVAAITKSGGRTYYADSVKGRFTISRDNAKNTVYLHMNSLKPEDTAVYYCNADDPDYLVSYRYDYWGLGTQVTVSS,low polyreactivity
19,QVQLVESGGGLVQAVGSLRLSCASSGYTFDYYTMGWYRQAPGKERELVARITASGGSTYYADSVKGRFTISRDNAKNTVYLQMNSLKPEDTAVYYCAKAWYRYSRFDYWGQGTQVTVSS,high polyreactivity
20,QVQLVESGGGLVQAVGTLRLSCAASGSIFGYNAMGWYRHAPAKEREFVAAIRWSSGSTYYADSVKGRFTISRDNAMNTVFLQMNSLKPEDTAVNYCATRQTYLYWGQGTQVTVSS,high polyreactivity
21,QVQLVESGGGLVQAVGTLRLTCAASGITFNVNAMGWYRQEPGKERELVARITTSGGSTSYADSVKGRFTISRDNAYNTVYLQMNSLKPEDTAVYYCAADRARYFSEYDYWGQGTQVTVSS,low polyreactivity

# Source: the nanobody polyreactivity screen of Harvey et al. (2022)
